Columns and labels:
[1] = biological target: T1, SARS-CoV-2 RBD variant E484K (New York) (SARS-CoV-2, UniProt P0DTC2 319-541); experiment: ELISA (FIG. 18B)
T1 construct: domain: RBD

[2] = biological target: T2, SARS-CoV-2 RBD variant S477N (New York) (SARS-CoV-2, UniProt P0DTC2 319-541); experiment: ELISA (FIG. 18B)
T2 construct: domain: RBD

[3] = biological target: T3, SARS-CoV-2 RBD variant N501Y (UK) (SARS-CoV-2, UniProt P0DTC2 319-541); experiment: ELISA (FIG. 18B)
T3 construct: domain: RBD

[4] = biological target: T4, SARS-CoV-2 RBD variant K417T, E484K, N501Y (Brazil) (SARS-CoV-2, UniProt P0DTC2 319-541); experiment: ELISA (FIG. 18B)
T4 construct: domain: RBD

[5] = biological target: T5, SARS-CoV-2 RBD variant K417N, E484K, N501Y (South Africa) (SARS-CoV-2, UniProt P0DTC2 319-541); experiment: ELISA (FIG. 18B)
T5 construct: domain: RBD

[6] = biological target: T6, SARS-CoV-2 RBD variant L452R (California) (SARS-CoV-2, UniProt P0DTC2 319-541); experiment: ELISA (FIG. 18B)
T6 construct: domain: RBD

[7] = biological target: T7, SARS-CoV-2 RBD variant N439K (Europe) (SARS-CoV-2, UniProt P0DTC2 319-541); experiment: ELISA (FIG. 18B)
T7 construct: domain: RBD

[8] = biological target: T8, SARS-CoV-2 RBD variant E484Q, L452R (India) (SARS-CoV-2, UniProt P0DTC2 319-541); experiment: ELISA (FIG. 18B)
T8 construct: domain: RBD

[9] = biological target: T9, SARS-CoV-2 RBD variant K417V, N439K (Europe) (SARS-CoV-2, UniProt P0DTC2 319-541); experiment: ELISA (FIG. 18B)
T9 construct: domain: RBD

[10] = biological target: T1, SARS-CoV-2 RBD variant E484K (New York); experiment: ELISA (FIG. 18A)
[11] = biological target: T2, SARS-CoV-2 RBD variant S477N (New York); experiment: ELISA (FIG. 18A)
[12] = biological target: T3, SARS-CoV-2 RBD variant N501Y (UK); experiment: ELISA (FIG. 18A)
[13] = biological target: T4, SARS-CoV-2 RBD variant K417T, E484K, …; experiment: ELISA (FIG. 18A)
[14] = biological target: T5, SARS-CoV-2 RBD variant K417N, E484K, …; experiment: ELISA (FIG. 18A)
[15] = biological target: T6, SARS-CoV-2 RBD variant L452R …; experiment: ELISA (FIG. 18A)
[16] = biological target: T7, SARS-CoV-2 RBD variant N439K (Europe); experiment: ELISA (FIG. 18A)
[17] = biological target: T8, SARS-CoV-2 RBD variant E484Q, L452R …; experiment: ELISA (FIG. 18A)
[18] = biological target: T9, SARS-CoV-2 RBD variant K417V, N439K …; experiment: ELISA (FIG. 18A)
[19] = biological target: T1, SARS-CoV-2 RBD variant E484K (New York); experiment: ELISA (FIG. 18C)
[20] = biological target: T2, SARS-CoV-2 RBD variant S477N (New York); experiment: ELISA (FIG. 18C)
[21] = biological target: T3, SARS-CoV-2 RBD variant N501Y (UK); experiment: ELISA (FIG. 18C)
[22] = biological target: T4, SARS-CoV-2 RBD variant K417T, E484K, …; experiment: ELISA (FIG. 18C)
[23] = biological target: T5, SARS-CoV-2 RBD variant K417N, E484K, …; experiment: ELISA (FIG. 18C)
[24] = biological target: T6, SARS-CoV-2 RBD variant L452R …; experiment: ELISA (FIG. 18C)
[25] = biological target: T7, SARS-CoV-2 RBD variant N439K (Europe); experiment: ELISA (FIG. 18C)
[26] = biological target: T8, SARS-CoV-2 RBD variant E484Q, L452R …; experiment: ELISA (FIG. 18C)
[27] = biological target: T9, SARS-CoV-2 RBD variant K417V, N439K …; experiment: ELISA (FIG. 18C)
[28] = biological target: T1, SARS-CoV-2 RBD variant E484K (New York); experiment: ELISA (FIG. 18E)
[29] = biological target: T2, SARS-CoV-2 RBD variant S477N (New York); experiment: ELISA (FIG. 18E)
[30] = biological target: T3, SARS-CoV-2 RBD variant N501Y (UK); experiment: ELISA (FIG. 18E)
[31] = biological target: T4, SARS-CoV-2 RBD variant K417T, E484K, …; experiment: ELISA (FIG. 18E)
[32] = biological target: T5, SARS-CoV-2 RBD variant K417N, E484K, …; experiment: ELISA (FIG. 18E)
[33] = biological target: T6, SARS-CoV-2 RBD variant L452R …; experiment: ELISA (FIG. 18E)
[34] = biological target: T7, SARS-CoV-2 RBD variant N439K (Europe); experiment: ELISA (FIG. 18E)
[35] = biological target: T8, SARS-CoV-2 RBD variant E484Q, L452R …; experiment: ELISA (FIG. 18E)
[36] = biological target: T9, SARS-CoV-2 RBD variant K417V, N439K …; experiment: ELISA (FIG. 18E)

Measured: binding result

B1: A-2F1 antibody (format in FIG. 18 not stated) (antibody, V domains shown)
VH: QVQLVQSGGGLIQPGGSLRLSCAASGVTVSSNYMSWVRQAPGKGLEWVSVIYSGGSTFYADSVKGRFTISRDNSKNTLYLQMNSLRAEDTAVYYCARDLMEAGGMDVWGQGSTVTVSS
VL: ELALTQPPSASGSPGQSVTISCTASSSDIGASNHVAWYQQNPGKAPKLMIYGVSGRPSGVPDRFSGSKSGNTASLTVSGLQAEDEADYYCSSYAGSNILIFGGGTKLTVL
binds: [1] | [2] | [3] | [4] | [5] | [6] | [7] | [8] | [9]

B2: A-1H4 antibody (format in FIG. 18 not stated) (antibody, V domains shown)
VH: EVQLVESGGGLVQPGRSLRLSCAASGFTVSSNYMSWVRQAPGKGLEWVSGIYSGGSTYYADSVKGRFTISRDNSKNTLYLQMNSLRAEDTAVYYCARDLQEAGAFDIWGQGTMVTVSS
VL: ELQLTQSPSFLSASVGDRVTITCRASQGISSYLAWYQQKPGKAPKLLIYAASTLQSGVPSRFSGSGSGTEFTLTISSLQPEDFATYYCQQLNSYPRLTFGGGTKVEIK
binds: [10] | [11] | [12] | [13] | [14] | [15] | [16] | [17] | [18]

B3: A-2H4 antibody (format in FIG. 18 not stated) (antibody, V domains shown)
VH: QMQLVESGGGLVQPGRSLRLSCAASGFTFSVYGMHWVRQAPGKGLEWVAVISYDGSNKYYADSVKGRFSISRDNSKNTLYLQMNSLRGEDTAVYYCAKGGPRPVVKAYGELDYYGMDVWGQGTTVTVSS
VL: ELALTQPASVSGSPGQSITISCTGTSSDIGGYEYVSWYQQHPGKAPKLIIYDVRDRPSGISNRFSGSKSGNTASLIISSLQAGDEADYYCFSYTSSGTYVFGSATKVTVL
binds: [19] | [20] | [21] | [22] | [23] | [24] | [25] | [26] | [27]

B4: E-3G9 antibody (format in FIG. 18 not stated) (antibody, V domains shown)
VH: QMQLVQSGAEVKKPGASVKVSCKASGHTITSYYMHWVRQAPGQGLEWMGIINPSGGSTSYAQKFQGRVTMTRDTSTSTVYMELSSLRSEDTAVYYCAREGVWDSSGYSSFDYWGQGTLVTVSS
VL: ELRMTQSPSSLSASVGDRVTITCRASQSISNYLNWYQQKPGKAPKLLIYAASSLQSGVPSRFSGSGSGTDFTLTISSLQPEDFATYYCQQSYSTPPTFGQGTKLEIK
binds: [28] | [29] | [30] | [31] | [32] | [33] | [34] | [35] | [36]

Reference: US20210395346A1 (SEOUL NATIONAL UNIVERSITY R AND DB FOUNDATION, published 2021)
